Experimental data published in patent US8343491B2, “Anti-HIMF antibodies to treat lung diseases” (The Johns Hopkins University, priority 2006, dated 2013).
“Also recorded” adds a separate entry of the source.

Key:
[1] = tested on: bone marrow cells; assay: Cell migration assay (Transwell); format: cell-based, mouse
Method: FIGS. 6A-6D. CD45 positive cell migration was stimulated by HIMF and inhibited by BTK inhibitor. Bone marrow cells were cultured on cover glass in 12 well plates as described in FIG. 5A-5B. The cells were then treated with BSA (FIG. 6A) or HIMF (FIG. 6B and FIG. 6C) for 4 days and fixed with pre-cooled methanol before immunocytochemistry with the indicated first antibodies. DAPI staining was used to show the nuclei. […] 5×10^5 bone marrow cells in 2% fetal bovine serum DMEM culture medium were transferred to each transwell in the presence of 50 nM BSA, HIMF, or HIMF plus 25 μM LFM-A13, respectively. The cells were cultured for 6 hours, fixed in pre-cooled methanol and stained by Coomassie Blue solution. The cells growing on the surface of the membrane were removed after staining. Bone marrow cell migration was induced by HIMF and this induction was inhibited by BTK inhibitor LFM-A13 (FIG. 6D).
Cell migration assay. Bone marrow cells were detached with trypsin-EDTA, washed in serum-free medium, and then counted and adjusted to 10^6 cells/ml. […]
BTK stimulated the migration of bone marrow cells. […] Cell migration was further determined by partial trypsin digestion culture, leaving the cells to grow in colonies on a cover glass.

[2] = biological target: T1, BTK (Mus musculus, UniProt P35991); assay: Protein phosphorylation assay (BTK Y223) in bone marrow cells; format: cell-based; conditions: 50 nM HIMF, minutes
T1 construct: incubated with bone marrow cell lysate or hypoxia tissue homogenate for three hours; endogenous in cells; host or cells: lysate of cultured mouse bone marrow cells; in the second result, homogenate of mouse hind limb hypoxic tissue
T1 sequence (P35991 whole entry): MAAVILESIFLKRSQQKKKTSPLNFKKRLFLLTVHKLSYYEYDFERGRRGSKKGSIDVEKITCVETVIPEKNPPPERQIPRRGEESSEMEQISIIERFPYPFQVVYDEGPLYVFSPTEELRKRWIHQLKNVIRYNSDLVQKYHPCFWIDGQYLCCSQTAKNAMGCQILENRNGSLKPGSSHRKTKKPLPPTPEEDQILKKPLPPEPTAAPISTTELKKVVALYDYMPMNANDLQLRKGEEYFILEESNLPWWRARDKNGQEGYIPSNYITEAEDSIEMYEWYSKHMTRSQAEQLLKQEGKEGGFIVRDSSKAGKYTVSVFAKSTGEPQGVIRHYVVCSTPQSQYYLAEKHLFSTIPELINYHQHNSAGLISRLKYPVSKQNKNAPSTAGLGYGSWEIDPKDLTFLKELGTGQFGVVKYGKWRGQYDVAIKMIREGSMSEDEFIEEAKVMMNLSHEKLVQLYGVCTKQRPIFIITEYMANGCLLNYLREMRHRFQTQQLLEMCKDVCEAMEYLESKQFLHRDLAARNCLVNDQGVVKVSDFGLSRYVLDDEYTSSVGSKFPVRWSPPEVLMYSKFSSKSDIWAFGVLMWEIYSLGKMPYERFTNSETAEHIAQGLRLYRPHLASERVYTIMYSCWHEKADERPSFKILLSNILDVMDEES
Method: (§1) FIGS. 4A-4C. BTK self-phosphorylation in response to the treatment of HIMF. Three plates of primary cultured bone marrow cells that were passed from the same plate of cells were cultured to confluence and then treated with HIMF (5 minutes and 30 minutes), or without HIMF. The cell lysates were used for the Western blot. The membrane was first probed by anti-BTK phosphorylation (Y223) antibody and then was probed by anti-BTK antibody after stripping (FIG. 4A). Five plates of primary cultured bone marrow cells that were passed from same plates of cells were cultured to confluence and then treated with HIMF (2.5, 5, 10 and 20 minutes respectively) or without HIMF. The cell lysates were used for the Western blot. The membrane was first detected by anti-BTK phosphorylation (Y223) antibody and then by anti-tubulin antibody (FIG. 4B). The same samples were used for the detection of fyn phosphorylation (FIG. 4C). Phosphorylation of Y416 upregulates enzyme activity. Phosphorylation of Y528 negatively regulates enzyme activity.
(§2) Protein phosphorylation assays. […] The supernatants of the samples were quantified for protein concentration and subjected to electrophoresis on a 4-15% SDS-polyacrylamide gel (Bio-Rad). […]

[3] = tested on: Fyn; assay: Fyn phosphorylation in bone marrow cells; format: cell-based, mouse; conditions: bone marrow cells stimulated with HIMF
Method: as §1, §2

[4] = biological target: T1, BTK; assay: BTK redistribution in bone marrow cells (immunofluorescence); format: cell-based; conditions: 50 nM HIMF, 5 minutes
Method: FIGS. 3A-3B. BTK redistribution in response to the stimulation of HIMF. Primary cultured bone marrow. Bone marrow cells were cultured on cover glass and then treated with 50 nM BSA (FIG. 3A) or HIMF (FIG. 3B) for five minutes. Cells were fixed by pre-cooled methanol before indirect immunofluorescence. BTK or FYN, a binding partner for BTK, was redistributed in bone marrow cells after the treatment of HIMF.
Immunofluorescence microscopy. Bone marrow or COS-7 cells were cultured on coverslips in DMEM containing 10% FBS and fixed in pre-cooled methanol for 5 minutes. The cells were then permeabilized with 0.2% Triton X-100 in PBS and blocked with 0.5% bovine serum albumin in PBS followed by incubation with the indicated antibodies. FITC-donkey anti-rabbit IgG and Rhodamine-donkey anti-mouse IgG were used as second antibodies. For transfection experiments, cells were cultured overnight and transfected with indicated constructs in serum-free medium for four hours and changed into DMEM containing 10% FBS overnight. Cells were fixed and stained as above. A 510 confocal microscope was used for the imaging.
Translocation of BTK in bone marrow cells in response to the stimulation of HIMF. […] The activation of BTK family tyrosine kinases will result in their stimulated translocation to membrane fractions (24). […]

[5] = tested on: bone marrow cells; assay: Cell migration out of colony (partial trypsin digestion culture); format: cell-based, mouse; conditions: 50 nM HIMF, 2% FBS DMEM, four days
Method: FIGS. 5A-5B. HIMF stimulated bone marrow cell migration. Bone marrow cells were partially digested by trypsin-EDTA solution, washed by PBS and then sucked up and transferred to twelve well plates using a 1000 μl tip. The cells were cultured in 2% fetal bovine serum DMEM with 50 nM BSA or HIMF for four days. More cells migrated out of the original cell colony in the presence of HIMF than those in BSA (FIG. 5A). 5×10^5 bone marrow cells were cultured in transwell plates in the presence of 50 nM BSA or HIMF. The cells were cultured overnight, fixed in pre-cooled methanol and stained by Coomassie Blue solution. The cells growing on the surface of the membrane were removed after staining (FIG. 5B). A Nikon Eclipse microscope was used for the imaging.
BTK stimulated the migration of bone marrow cells. To test whether HIMF stimulates the migration of bone marrow cells, bone marrow cells were cultured in transwell plates in the presence of […] BSA or HIMF. The cells were cultured overnight, fixed in methanol and stained by Coomassie Blue solution. Cells growing on the surface of the membrane were removed by cotton tipped applicators before imaging. […] Cell migration was further determined by partial trypsin digestion culture, leaving the cells to grow in colonies on a cover glass.

[6] = tested on: hindlimb ischemia tissues; assay: Mouse hindlimb ischemic model, agarose gel implant; format: in vivo; conditions: 100 nM HIMF in 2% agarose gel implanted, two weeks, versus BSA gel
Method: FIGS. 7A-7B. […] Mouse hind limb ischemia model was established and agarose gel containing 100 nM BSA or 100 nM HIMF (gels were cut into 2×5×8 mm pieces) were buried subcutaneously at the sites of ischemia. Two weeks later, the ischemic tissues were collected for immunocytochemistry. The tissue treated by HIMF (FIG. 7B) was shown increasing in CD34 positive cells comparing to that of BSA treated tissue (FIG. 7A).
Mouse hindlimb ischemic model. Animals were subjected to left femoral artery ligation and excision to create unilateral hind limb ischemia. For each animal, 25 mg/kg ketamine plus 10 mg/kg xylazine was injected subcutaneously. Skin incisions were performed at the middle portion of the left hind limb overlying the femoral artery. The femoral artery was gently isolated. First the proximal portion and then the distal portion of the femoral artery were ligated, and then other arterial branches as well as veins were dissected free and excised. The overlying skin was closed using two surgical staples. Tissue in the hypoxia area was removed and homogenized in TBST buffer two weeks after the operation.
HIMF promoted angiogenesis in hypoxic tissues. Hypoxia can induce pulmonary artery adventitial remodeling and neovascularization. […]

[7] = biological target: T1, BTK; assay: GST pull-down assay; format: binding
Method: FIGS. 1A-1B. BTK is a HIMF-binding molecule. GST-HIMF fusion protein and GST were incubated with glutathione-sepharose beads and then incubated with bone marrow cell lysate respectively in TBST buffer at 4° C. for three hours. The beads were washed five times by TBST and loading buffer was added to the samples. After electrophoresis, the gel was stained by Coomassie Blue. […] GST-HIMF and GST were first bonded to glutathione sepharose and then incubated with the lysate of bone marrow cells (left) or homogenate of ischemic tissue (right) at 4° C. for three hours and then washed by TBST solution three times. After SDS-PAGE and transfer to membrane, the samples were detected by anti-BTK and anti-GST antibodies (FIG. 1B).
GST pull-down assay. Bone marrow cells were cultured in ten 150×25 mm plates until confluence and collected for lysate using TBST buffer. Lysate from ten plates of bone marrow cells was used for HIMF-binding partner screening assay. Hypoxia tissue homogenate was prepared as described above. BL21 bacterial lysates for GST and GST-HIMF were first incubated with glutathione agarose in 0.1% TBST buffer for three hours and then washed three times by 0.1% TBST buffer. The GST and GST-HIMF binding glutathione agaroses were incubated with bone marrow cell lysate or hypoxia tissue homogenate for three hours and then washed 3-5 times before SDS-PAGE.

## C/C(O)=C(\C#N)C(=O)Nc1cc(Br)ccc1Br [LFM-A13, reference compound]
[1]; 25 μM LFM-A13 plus 50 nM HIMF, transwell, 6 hours
  Inhibition of HIMF-induced bone marrow cell migration: inhibited; also recorded: completely blocked

B1: HIMF: Hypoxia-induced mitogenic factor protein (Flag-tagged mouse HIMF) applied to cells and tissue (protein)
chain: DETIEIIVENKVKELLANPANYPSTVTKTLSCTSVKTMNRWASCPAGMTATGCACGFACGSWEIQSGDTCNCLCLLVDWTTARCCQLS
[1]; 50 nM HIMF, overnight
  Bone marrow cell migration (transwell) versus BSA: markedly promoted; also recorded: More cells migrated out of the chamber
[2]
  BTK self-phosphorylation (Y223): stimulate the self-phosphorylation of BTK
[3]
  Fyn activity (phosphorylation Y416/Y528): not changed in activity
[4]
  BTK translocation in bone marrow cells: rapidly induced recruitment of BTK to the leading edge of cells
[5]
  Bone marrow cell migration out of the colony versus BSA: more bone marrow cells were stimulated to migrate out of the colony
[6]
  Angiogenesis in hindlimb ischemia tissues: stimulated angiogenesis
  CD34 positive cells in ischemic tissue: increased

B2: GST-HIMF: GST fusion protein of mouse HIMF expressed in BL21 cells (protein)
chain: DETIEIIVENKVKELLANPANYPSTVTKTLSCTSVKTMNRWASCPAGMTATGCACGFACGSWEIQSGDTCNCLCLLVDWTTARCCQLS
modifications: left off: a dimerising Fc or GST
notes: GST fusion protein of mouse HIMF expressed in BL21 cells
[7]; bone marrow cell lysate, GST control did not
  Pull-down of BTK from bone marrow cell lysate: pulled down BTK
[7]; homogenate of mouse hind limb hypoxic tissue, not to GST
  Binding of BTK from hind limb hypoxic tissue homogenate: shown to bind
